For test [1], the target named is recombinant human calreticulin (amino acids 18 to 417, N-terminal His-tag) (human) (UniProt P27797).
Test [2] has as its target bovine liver calreticulin (bovine) (UniProt P52193). The experiment in a line: SPR; bovine CRT or human recombinant S100A10 amine-coupled to CM5 chips (1000 to 1300 RU), BIACORE 3000; Glu-plasminogen (0-1 uM) or 0.5 uM bovine serum albumin flowed at 50 ul/min; 25 °C; HBS-ET (10 mM Hepes pH 7.4, 150 mM NaCl, 3 mM EDTA, 0.05% Tween-20); apparent KD from steady-state affinity model. For orientation: In SPR one partner is held on a chip, and binding of the other changes the refractive index at the surface.
Chain of UniProt P52193 (P52193 18-417): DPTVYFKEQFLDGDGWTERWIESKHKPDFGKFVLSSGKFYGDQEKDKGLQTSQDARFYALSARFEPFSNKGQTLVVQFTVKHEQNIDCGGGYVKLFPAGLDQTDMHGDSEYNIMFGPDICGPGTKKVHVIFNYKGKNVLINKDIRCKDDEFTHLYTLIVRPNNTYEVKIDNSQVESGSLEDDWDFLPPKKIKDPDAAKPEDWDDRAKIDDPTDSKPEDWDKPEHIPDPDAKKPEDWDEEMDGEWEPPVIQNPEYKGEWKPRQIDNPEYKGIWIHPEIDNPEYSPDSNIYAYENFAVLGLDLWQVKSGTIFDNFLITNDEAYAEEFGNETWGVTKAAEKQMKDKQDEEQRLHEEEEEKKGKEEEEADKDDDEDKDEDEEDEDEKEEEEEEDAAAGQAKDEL

In test [3] the target is human recombinant S100A10 (human) (UniProt P60903). Described as above.
Chain of UniProt P60903 (P60903 whole entry): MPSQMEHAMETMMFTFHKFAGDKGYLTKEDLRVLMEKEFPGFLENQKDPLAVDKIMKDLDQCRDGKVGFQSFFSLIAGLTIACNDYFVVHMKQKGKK

The source of these data is paper PMC10770727.

Chain of UniProt P27797 (P27797 18-417): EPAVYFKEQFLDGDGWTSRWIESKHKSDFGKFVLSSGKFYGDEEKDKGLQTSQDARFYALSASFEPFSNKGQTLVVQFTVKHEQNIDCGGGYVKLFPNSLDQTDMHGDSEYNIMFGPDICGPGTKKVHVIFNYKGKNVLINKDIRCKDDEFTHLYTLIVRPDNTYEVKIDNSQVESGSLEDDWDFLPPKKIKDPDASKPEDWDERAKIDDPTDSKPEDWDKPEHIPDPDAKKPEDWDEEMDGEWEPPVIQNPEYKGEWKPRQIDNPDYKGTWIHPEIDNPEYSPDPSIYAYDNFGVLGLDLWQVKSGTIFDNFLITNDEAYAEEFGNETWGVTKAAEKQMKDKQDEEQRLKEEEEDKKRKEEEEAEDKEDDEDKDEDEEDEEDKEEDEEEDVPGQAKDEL

For human Glu-plasminogen (natural protein), the inhibition by 10 mM ε-ACA of the stimulation of tPA-dependent plasminogen activation by 0.5 μM recombinant human CRT in test [1] stood at 80%. For the same substance, the results for the Kd in test [2] and in test [3] were 1900 nM and 500 nM, respectively.
